Experimental findings from patent US9175313B2, “Three-dimensional structure of isoprene synthase and its use thereof for generating variants” (Danisco US Inc., priority 2009, dated 2015) are described below.

A short description of this assay: Specific activity measurement of purified isoprene synthase variants (4 mM DMAPP, 30 C, GC-MS headspace). Type of assay: biochemical. As to conditions: 50 mM NaCl, 50 mM Tris pH = 8, 30° C.; for Variant S.A./WT S.A.: ratio to WT. As for the experimental part:
1. Initial Purification—Resuspend the pellet in 3 ml of fresh lysis buffer. Break cells by passing them through the French Press using the small cylinder. Centrifuge samples for 1 hour at 30,000×G and collect the supernatant. Retain pellet in order to test for presence of insoluble protein. Pre equilibrate 0.5 mL Ni Sepharose 6 Fast Flow resin (Amersham) in a 20 ml disposable column with 10 mL of Ni wash buffer. Add protein to column and shake for 60 min at 4 C to bind protein. Elute protein with 2.5 mL Ni elution buffer.
2. Buffer Exchange—Equilibrate a PD-10 column (GE Healthcare) with 25 mL of PD-10 buffer. Load protein on to column and elute with 3.5 mL of PD-10 buffer.
10 uL of purified enzyme was incubated with 4 mM DMAPP, 50 mM MgCl2 in a buffer containing 50 mM Tris and 50 mM NaCl (pH=8) to a final volume of 100 uL for 15 min. at 30 C in gas tight 2 mL vials. Reactions were terminated with the addition of 100 uL of […] EDTA, pH=8. Samples were analyzed by GC-MS to determine the concentration of isoprene in the headspace of the vials. All specific activity measurements were performed in triplicate.
Protein concentration was determined by measuring the absorbance of each protein solution at 280 nm on a Helwlett Pachard 8453 UV-Vis spectrophotometer and converting the absorbance to protein concentration using the extinction coefficient as determined on the Expasy website (Gasteiger E., Hoogland C., Gattiker A., Duvaud S., Wilkins M. R., Appel R. D., Bairoch A.; Protein Identification and Analysis Tools on the ExPASy Server; (In) John M. Walker (ed): The Proteomics Protocols Handbook, Humana Press (2005). pp. 571-607). The protein concentrations of isoprene synthase variants assayed for KM and kcat determination were verified by comparative gel electrophoresis of a dilution series of each protein (FIG. 61).

B1: PC: P. alba MEA L494P T536C (+) TEV; pDW113, SEQ ID NO: 93 (protein)
chain: MEARRSANYEPNSWDYDYLLSSDTDESIEVYKDKAKKLEAEVRREINNEKAEFLTLLELIDNVQRLGLGYRFESDIRGALDRFVSSGGFDAVTKTSLHGTALSFRLLRQHGFEVSQEAFSGFKDQNGNFLENLKEDIKAILSLYEASFLALEGENILDEAKVFAISHLKELSEEKIGKELAEQVNHALELPLHRRTQRLEAVWSIEAYRKKEDANQVLLELAILDYNMIQSVYQRDLRETSRWWRRVGLATKLHFARDRLIESFYWAVGVAFEPQYSDCRNSVAKMFSFVTIIDDIYDVYGTLDELELFTDAVERWDVNAINDLPDYMKLCFLALYNTINEIAYDNLKDKGENILPYLTKAWADLCNAFLQEAKWLYNKSTPTFDDYFGNAWKSSSGPLQLVFAYFAVVQNIKKEEIENLQKYHDTISRPSHIFRLCNDLASASAEIARGETANSVSCYMRTKGISEELATESVMNLIDETWKKMNKEKLGGSPFAKPFVETAINLARQSHCTYHNGDAHTSPDELTRKRVLSVICEPILPFERENLYFQGLEHHHHHH
modifications: TEV site
Consider B1, for which the S.A. came to 490 ± 20 nmol/mg/min and the “Variant S.A./WT S.A.” value turned out to be 1.0.

B2: G491S: P. alba IspS variant G491S; pDW100, strain DW398, SEQ ID NO: 67 (protein)
chain: MEARRSANYEPNSWDYDYLLSSDTDESIEVYKDKAKKLEAEVRREINNEKAEFLTLLELIDNVQRLGLGYRFESDIRGALDRFVSSGGFDAVTKTSLHGTALSFRLLRQHGFEVSQEAFSGFKDQNGNFLENLKEDIKAILSLYEASFLALEGENILDEAKVFAISHLKELSEEKIGKELAEQVNHALELPLHRRTQRLEAVWSIEAYRKKEDANQVLLELAILDYNMIQSVYQRDLRETSRWWRRVGLATKLHFARDRLIESFYWAVGVAFEPQYSDCRNSVAKMFSFVTIIDDIYDVYGTLDELELFTDAVERWDVNAINDLPDYMKLCFLALYNTINEIAYDNLKDKGENILPYLTKAWADLCNAFLQEAKWLYNKSTPTFDDYFGNAWKSSSGPLQLVFAYFAVVQNIKKEEIENLQKYHDTISRPSHIFRLCNDLASASAEIARGETANSVSCYMRTKGISEELATESVMNLIDETWKKMNKEKLSGSLFAKPFVETAINLARQSHCTYHNGDAHTSPDELTRKRVLSVITEPILPFERENLYFQGLEHHHHHH
On to B2, for which the S.A. was 480 ± 20 nmol/mg/min and the “Variant S.A./WT S.A.” value amounted to 1.0.

B3: SC: P. alba MEA G491S T536C (+) TEV; pDW111, SEQ ID NO: 89 (protein)
chain: MEARRSANYEPNSWDYDYLLSSDTDESIEVYKDKAKKLEAEVRREINNEKAEFLTLLELIDNVQRLGLGYRFESDIRGALDRFVSSGGFDAVTKTSLHGTALSFRLLRQHGFEVSQEAFSGFKDQNGNFLENLKEDIKAILSLYEASFLALEGENILDEAKVFAISHLKELSEEKIGKELAEQVNHALELPLHRRTQRLEAVWSIEAYRKKEDANQVLLELAILDYNMIQSVYQRDLRETSRWWRRVGLATKLHFARDRLIESFYWAVGVAFEPQYSDCRNSVAKMFSFVTIIDDIYDVYGTLDELELFTDAVERWDVNAINDLPDYMKLCFLALYNTINEIAYDNLKDKGENILPYLTKAWADLCNAFLQEAKWLYNKSTPTFDDYFGNAWKSSSGPLQLVFAYFAVVQNIKKEEIENLQKYHDTISRPSHIFRLCNDLASASAEIARGETANSVSCYMRTKGISEELATESVMNLIDETWKKMNKEKLSGSLFAKPFVETAINLARQSHCTYHNGDAHTSPDELTRKRVLSVICEPILPFERENLYFQGLEHHHHHH
modifications: TEV site
With B3, the S.A. was 440 ± 20 nmol/mg/min and the “Variant S.A./WT S.A.” value worked out at 0.9.

B4: NC: P. alba MEA A453N T536C (+) TEV; pDW105, SEQ ID NO: 77 (protein)
chain: MEARRSANYEPNSWDYDYLLSSDTDESIEVYKDKAKKLEAEVRREINNEKAEFLTLLELIDNVQRLGLGYRFESDIRGALDRFVSSGGFDAVTKTSLHGTALSFRLLRQHGFEVSQEAFSGFKDQNGNFLENLKEDIKAILSLYEASFLALEGENILDEAKVFAISHLKELSEEKIGKELAEQVNHALELPLHRRTQRLEAVWSIEAYRKKEDANQVLLELAILDYNMIQSVYQRDLRETSRWWRRVGLATKLHFARDRLIESFYWAVGVAFEPQYSDCRNSVAKMFSFVTIIDDIYDVYGTLDELELFTDAVERWDVNAINDLPDYMKLCFLALYNTINEIAYDNLKDKGENILPYLTKAWADLCNAFLQEAKWLYNKSTPTFDDYFGNAWKSSSGPLQLVFAYFAVVQNIKKEEIENLQKYHDTISRPSHIFRLCNDLASASAEIARGETNNSVSCYMRTKGISEELATESVMNLIDETWKKMNKEKLGGSLFAKPFVETAINLARQSHCTYHNGDAHTSPDELTRKRVLSVICEPILPFERENLYFQGLEHHHHHH
modifications: TEV site
For B4, the S.A. turned out to be 420 ± 30 nmol/mg/min and the “Variant S.A./WT S.A.” value is given as 0.9.

B5: NP: P. alba MEA A453N L494P (+) TEV; pDW104, SEQ ID NO: 75 (protein)
chain: MEARRSANYEPNSWDYDYLLSSDTDESIEVYKDKAKKLEAEVRREINNEKAEFLTLLELIDNVQRLGLGYRFESDIRGALDRFVSSGGFDAVTKTSLHGTALSFRLLRQHGFEVSQEAFSGFKDQNGNFLENLKEDIKAILSLYEASFLALEGENILDEAKVFAISHLKELSEEKIGKELAEQVNHALELPLHRRTQRLEAVWSIEAYRKKEDANQVLLELAILDYNMIQSVYQRDLRETSRWWRRVGLATKLHFARDRLIESFYWAVGVAFEPQYSDCRNSVAKMFSFVTIIDDIYDVYGTLDELELFTDAVERWDVNAINDLPDYMKLCFLALYNTINEIAYDNLKDKGENILPYLTKAWADLCNAFLQEAKWLYNKSTPTFDDYFGNAWKSSSGPLQLVFAYFAVVQNIKKEEIENLQKYHDTISRPSHIFRLCNDLASASAEIARGETNNSVSCYMRTKGISEELATESVMNLIDETWKKMNKEKLGGSPFAKPFVETAINLARQSHCTYHNGDAHTSPDELTRKRVLSVITEPILPFERENLYFQGLEHHHHHH
modifications: TEV site
As for B5, the S.A. was 490 ± 20 nmol/mg/min and the “Variant S.A./WT S.A.” value was determined as 1.0.

B6: NS: P. alba MEA A453N G491S (+) TEV; pDW103, SEQ ID NO: 73 (protein)
chain: MEARRSANYEPNSWDYDYLLSSDTDESIEVYKDKAKKLEAEVRREINNEKAEFLTLLELIDNVQRLGLGYRFESDIRGALDRFVSSGGFDAVTKTSLHGTALSFRLLRQHGFEVSQEAFSGFKDQNGNFLENLKEDIKAILSLYEASFLALEGENILDEAKVFAISHLKELSEEKIGKELAEQVNHALELPLHRRTQRLEAVWSIEAYRKKEDANQVLLELAILDYNMIQSVYQRDLRETSRWWRRVGLATKLHFARDRLIESFYWAVGVAFEPQYSDCRNSVAKMFSFVTIIDDIYDVYGTLDELELFTDAVERWDVNAINDLPDYMKLCFLALYNTINEIAYDNLKDKGENILPYLTKAWADLCNAFLQEAKWLYNKSTPTFDDYFGNAWKSSSGPLQLVFAYFAVVQNIKKEEIENLQKYHDTISRPSHIFRLCNDLASASAEIARGETNNSVSCYMRTKGISEELATESVMNLIDETWKKMNKEKLSGSLFAKPFVETAINLARQSHCTYHNGDAHTSPDELTRKRVLSVITEPILPFERENLYFQGLEHHHHHH
modifications: TEV site
With B6, the S.A. came out at 480 ± 40 nmol/mg/min and the “Variant S.A./WT S.A.” value is 1.0.
